Tests used:
purified protein [1] = substrate: CCCCCC=O; test: purified protein; settings: NADPH 0.3 mM, 50 mM Tris-HCl pH 7.5, 37 °C
[2] = substrate: CC(C)C=O; test: purified protein, by the assay type; design: NADPH/NADP+ absorbance at 340 nm, purified His-tagged enzyme, Michaelis-Menten fit; pH 7.5 reduction, pH 8.5 oxidation, 37 °C
Procedure: (§1) The ADH activity was determined photometrically by monitoring the increase/decrease of NADP^+/NADPH at 340 nm in a Mulitskan® spectrum spectrophotometer (Thermo Fisher Scientific). The reaction mixture contained 50 mM Tris-HCl, pH 7.5, 0.3 mM NAD(P)H a defined aldehyde as substrate, and the purified enzyme at 37 °C. One unit of enzyme activity was defined as the amount of protein that oxidizes 1 μmol of NAD(P)H/min at 37 °C. Calculation of Michaelis–Menten kinetics for determination of K m and V max was done with SigmaPlot 11.0 (Systat Software). Alcohols with alkyl chains longer than C6 were not tested as substrates due to solubility problems. For the characterization of recombinant YahK and YjgB, enzyme activity was assayed for the reduction of carbonyl compounds and the oxidation of alcohols. For the reduction of carbonyl compounds, the assays were conducted at pH 7.5, 50 mM Tris-HCl, and 37 °C. The oxidation of alcohols was assayed with a slightly higher pH of 8.5, 50 mM Tris-HCl, and 37 °C. […] The decrease of NADPH at 340 nm was determined using a Shimadzu UV-1800 UV-spectrophotometer (Duisburg, Germany) Protein expression is exemplarily described for one enzyme and was performed for other proteins by the same procedure. E. coli BL21(DE3) containing the plasmid of interest was grown in 50 ml autoinduction media for efficient protein expression (Studier [2005]). In the case of YjgB, YahK, and YqhD, additional ZnCl2 was added to the media with a final concentration of 0.1 mM. The preculture was incubated in 4 ml of LB medium with 100 μg/ml kanamycin at 37 °C overnight on a rotary shaker (180 rpm). Expression culture was inoculated with a 1:100 dilution of overnight culture. Incubation was performed foremost 3 h at 37 °C followed by incubation for 21 h at 16 °C. Cells were harvested by centrifugation and resuspended in 50 mM sodium phosphate buffer (pH 8.0, 20 mM imidazol, 500 mM NaCl, and 10 % glycerol). Crude extracts were prepared by use of a cell disrupter (IUL Instruments) and subsequent addition of MgCl2 to a final concentration of 2.5 mM in combination with DNase (1 μg/ml) and a following incubation for 20 min at room temperature for DNA degradation. The insoluble fraction of the lysate was removed by centrifugation at 20,000 rpm for 40 min at 4 °C. The supernatant was filtered through a 0.45-μm syringe filter and applied to an affinity resin column, 5 ml HisTrap^TM FF, equilibrated with the resuspension buffer using the ÄKTA UPC-900 FPLC-system. The enzyme was washed with 20 ml of resuspension buffer and eluted with 50 mM sodium phosphate buffer (pH 8.0, 500 mM imidazol, 500 mM NaCl, and 10 % glycerol). Aliquots of each eluted fraction were subjected to 12 % SDS-PAGE. The fractions containing the eluted protein were pooled and the protein was desalted using a HiPrep^TM 26/10 Desalting column which preliminary equilibrated with 50 mM Tris-HCl, pH 8.0. Protein concentrations were determined using a Bradford assay Roti®-nanoquant (Carl Roth).

[3] = substrate: OCCCCO; test: purified protein, by the assay type; design: NADPH/NADP+ absorbance at 340 nm, purified His-tagged enzyme, Michaelis-Menten fit; pH 7.5 reduction, pH 8.5 oxidation, 37 °C
Procedure: as §1

[4] = substrate: CC=O; test: purified protein, by the assay type; design: NADPH/NADP+ absorbance at 340 nm, purified His-tagged enzyme, Michaelis-Menten fit; pH 7.5 reduction, pH 8.5 oxidation, 37 °C
Procedure: as §1

purified protein [5] = substrate: O=CCCCC=O; test: purified protein; format: biochemical, Escherichia coli; settings: NADPH 0.3 mM, 50 mM Tris-HCl pH 7.5, 37 °C, pH 7.5
purified protein [6] = substrate: CCCCO; test: purified protein; format: biochemical, Escherichia coli; settings: NADP+, 50 mM Tris-HCl pH 8.5, 37 °C, pH 8.5
purified protein [7] = substrate: O=Cc1ccccc1; test: purified protein; format: biochemical, Escherichia coli; settings: NADPH 0.3 mM, 50 mM Tris-HCl pH 7.5, 37 °C, pH 7.5
purified protein [8] = substrate: O=Cc1ccco1; test: purified protein; format: biochemical, Escherichia coli; settings: NADPH 0.3 mM, 50 mM Tris-HCl pH 7.5, 37 °C, pH 7.5
purified protein [9] = substrate: CCC=O; test: purified protein; format: biochemical, Escherichia coli; settings: NADPH 0.3 mM, 50 mM Tris-HCl pH 7.5, 37 °C, pH 7.5
purified protein [10] = substrate: CCCC=O; test: purified protein; format: biochemical, Escherichia coli; settings: NADPH 0.3 mM, 50 mM Tris-HCl pH 7.5, 37 °C, pH 7.5
purified protein [11] = substrate: NC(=O)c1ccc[n+]([C@@H]2O[C@H](COP(=O)(O)OP(=O)(O)OC[C@H]3O[C@@H](n4cnc5c(N)ncnc54)[C@H](OP(=O)(O)O)[C@@H]3O)[C@@H](O)[C@H]2O)c1; test: purified protein; format: biochemical, Escherichia coli; settings: butanol, 50 mM Tris-HCl pH 8.5, 37 °C, pH 8.5, varied: cofactor
purified protein [12] = substrate: NC(=O)C1=CN([C@@H]2O[C@H](COP(=O)(O)OP(=O)(O)OC[C@H]3O[C@@H](n4cnc5c(N)ncnc54)[C@H](OP(=O)(O)O)[C@@H]3O)[C@@H](O)[C@H]2O)C=CC1; test: purified protein; format: biochemical, Escherichia coli; settings: butyraldehyde, 50 mM Tris-HCl pH 7.5, 37 °C, pH 7.5, varied: cofactor
purified protein [13] = substrate: C/C=C/C=O; test: purified protein; format: biochemical, Escherichia coli; settings: NADPH 0.3 mM, 50 mM Tris-HCl pH 7.5, 37 °C, pH 7.5
purified protein [14] = substrate: CC(C)C=O; test: purified protein; settings: NADPH 0.3 mM, 50 mM Tris-HCl pH 7.5, 37 °C
purified protein [15] = substrate: O=C[C@H](O)CO; test: purified protein; settings: NADPH 0.3 mM, 50 mM Tris-HCl pH 7.5, 37 °C
[16] = substrate: CCC=O; test: purified protein, by the assay type; design: NADPH/NADP+ absorbance at 340 nm, purified His-tagged enzyme, Michaelis-Menten fit; pH 7.5 reduction, pH 8.5 oxidation, 37 °C
Procedure: as §1

| Protein | Km (purified protein [1]) | kcat (purified protein [1]) | kcat/Km (purified protein [1]) | Km [3] | kcat [3] | kcat/Km [3] | Km [4] | kcat [4] | kcat/Km [4] | Km (purified protein [5]) | kcat (purified protein [5]) | kcat/Km (purified protein [5]) | Km (purified protein [7]) | kcat (purified protein [7]) | kcat/Km (purified protein [7]) | Km (purified protein [8]) | kcat (purified protein [8]) | kcat/Km (purified protein [8]) | Km (purified protein [10]) | kcat (purified protein [10]) | other results |
| --- | --- | --- | --- | --- | --- | --- | --- | --- | --- | --- | --- | --- | --- | --- | --- | --- | --- | --- | --- | --- | --- |
| YjgB (Escherichia coli K-12) (protein, expressed in E. coli BL21(DE3) with ZnCl2) MSMIKSYAAKEAGGELEVYEYDPGELRPQDVEVQVDYCGICHSDLSMIDNEWGFSQYPLVAGHEVIGRVVALGSAAQDKGLQVGQRVGIGWTARSCGHCDACISGNQINCEQGAVPTIMNRGGFAEKLRADWQWVIPLPENIDIESAGPLLCGGITVFKPLLMHHITATSRVGVIGIGGLGHIAIKLLHAMGCEVTAFSSNPAKEQEVLAMGADKVVNSRDPQALKALAGQFDLIINTVNVSLDWQPYFEALTYGGNFHTVGAVLTPLSVPAFTLIAGDRSVSGSATGTPYELRKLMRFAARSKVAPTTELFPMSKINDAIQHVRDGKARYRVVLKADF | 340 ± 30 µM | 419 s⁻¹ | 1.23e+06 M⁻¹ s⁻¹ | 24100 ± 1500 µM | 12.9 ± 0.4 s⁻¹ | 530 M⁻¹ s⁻¹ | 73400 ± 5400 µM | 333 ± 26.1 s⁻¹ | 4500 M⁻¹ s⁻¹ | 5800 ± 500 µM | 312 ± 14.8 s⁻¹ | 53800 M⁻¹ s⁻¹ | 240 ± 20 µM | 313 ± 7.4 s⁻¹ | 1.3e+06 M⁻¹ s⁻¹ | 220 ± 20 µM | 224 ± 26.9 s⁻¹ | 1.02e+06 M⁻¹ s⁻¹ | 2100 ± 90 µM | 464 ± 24.2 s⁻¹ | Km [2]: 193700 ± 27500 µM; kcat [2]: 50.8 ± 9.4 s⁻¹; kcat/Km [2]: 260 M⁻¹ s⁻¹; Km (purified protein [6]): 3500 ± 280 µM; kcat (purified protein [6]): 13.8 ± 0.6 s⁻¹; kcat/Km (purified protein [6]): 3940 M⁻¹ s⁻¹; Km (purified protein [9]): 19600 ± 800 µM; kcat (purified protein [9]): 207 ± 2.9 s⁻¹; kcat/Km (purified protein [9]): 10600 M⁻¹ s⁻¹; kcat/Km (purified protein [10]): 221000 M⁻¹ s⁻¹; Km (purified protein [11]): 76 ± 10 µM; kcat (purified protein [11]): 14.4 ± 0.2 s⁻¹; kcat/Km (purified protein [11]): 189000 M⁻¹ s⁻¹; Km (purified protein [12]): 60 ± 3 µM; kcat (purified protein [12]): 224 ± 36.5 s⁻¹; kcat/Km (purified protein [12]): 3.73e+06 M⁻¹ s⁻¹; Km (purified protein [13]): 2400 ± 200 µM; kcat (purified protein [13]): 77.6 ± 3.3 s⁻¹; kcat/Km (purified protein [13]): 32300 M⁻¹ s⁻¹ |
| YahK (Escherichia coli K-12) (protein, expressed in E. coli BL21(DE3) with ZnCl2) MKIKAVGAYSAKQPLEPMDITRREPGPNDVKIEIAYCGVCHSDLHQVRSEWAGTVYPCVPGHEIVGRVVAVGDQVEKYAPGDLVGVGCIVDSCKHCEECEDGLENYCDHMTGTYNSPTPDEPGHTLGGYSQQIVVHERYVLRIRHPQEQLAAVAPLLCAGITTYSPLRHWQAGPGKKVGVVGIGGLGHMGIKLAHAMGAHVVAFTTSEAKREAAKALGADEVVNSRNADEMAAHLKSFDFILNTVAAPHNLDDFTTLLKRDGTMTLVGAPATPHKSPEVFNLIMKRRAIAGSMIGGIPETQEMLDFCAEHGIVADIEMIRADQINEAYERMLRGDVKYRFVIDNRTLTD | 370 ± 20 µM | 18.3 s⁻¹ | 49500 M⁻¹ s⁻¹ | 38500 ± 2900 µM | 6.7 ± 0.3 s⁻¹ | 180 M⁻¹ s⁻¹ | 13300 ± 1000 µM | 11.2 ± 0.7 s⁻¹ | 840 M⁻¹ s⁻¹ | 4100 ± 400 µM | 13.4 ± 1.5 s⁻¹ | 3300 M⁻¹ s⁻¹ | 290 ± 20 µM | 7.75 ± 0.5 s⁻¹ | 26700 M⁻¹ s⁻¹ | 135 ± 30 µM | 12.5 ± 1.9 s⁻¹ | 92300 M⁻¹ s⁻¹ | 2100 ± 100 µM | 41.6 ± 0.6 s⁻¹ | Km (purified protein [14]): 2200 ± 200 µM; kcat (purified protein [14]): 32.1 s⁻¹; kcat/Km (purified protein [14]): 14600 M⁻¹ s⁻¹; Km (purified protein [15]): 4400 ± 400 µM; kcat (purified protein [15]): 12.3 s⁻¹; kcat/Km (purified protein [15]): 2800 M⁻¹ s⁻¹; Km [16]: 10900 ± 1000 µM; kcat [16]: 11.6 ± 0.6 s⁻¹; kcat/Km [16]: 1100 M⁻¹ s⁻¹; kcat/Km (purified protein [10]): 19800 M⁻¹ s⁻¹; Km (purified protein [11]): 12 ± 1 µM; kcat (purified protein [11]): 7.47 ± 0.07 s⁻¹; kcat/Km (purified protein [11]): 622000 M⁻¹ s⁻¹; Km (purified protein [12]): 11 ± 1 µM; kcat (purified protein [12]): 9.8 ± 0.4 s⁻¹; kcat/Km (purified protein [12]): 894000 M⁻¹ s⁻¹; Km (purified protein [13]): 3600 ± 400 µM; kcat (purified protein [13]): 32.6 ± 2.1 s⁻¹; kcat/Km (purified protein [13]): 9100 M⁻¹ s⁻¹ |
